Numbered stars: 1 amine (or outer) side, 2 acyl side, 3 side chain; on linkers, the order of the positions; unused ones are H or OH. Bridge positions count the residues as written; N and C are the ends. Side chains are listed from the residue outwards. Ends that are not written are not given here. * marks the point of attachment. C20 diacid = O=C(O)CCCCCCCCCCCCCCCCCCC(=O)*; γGlu = O=C(O)[C@H](CCC(=O)[*:2])N[*:1]
T1: human calcitonin receptor (human, UniProt P30988 25-474)
T1 sequence (looked up): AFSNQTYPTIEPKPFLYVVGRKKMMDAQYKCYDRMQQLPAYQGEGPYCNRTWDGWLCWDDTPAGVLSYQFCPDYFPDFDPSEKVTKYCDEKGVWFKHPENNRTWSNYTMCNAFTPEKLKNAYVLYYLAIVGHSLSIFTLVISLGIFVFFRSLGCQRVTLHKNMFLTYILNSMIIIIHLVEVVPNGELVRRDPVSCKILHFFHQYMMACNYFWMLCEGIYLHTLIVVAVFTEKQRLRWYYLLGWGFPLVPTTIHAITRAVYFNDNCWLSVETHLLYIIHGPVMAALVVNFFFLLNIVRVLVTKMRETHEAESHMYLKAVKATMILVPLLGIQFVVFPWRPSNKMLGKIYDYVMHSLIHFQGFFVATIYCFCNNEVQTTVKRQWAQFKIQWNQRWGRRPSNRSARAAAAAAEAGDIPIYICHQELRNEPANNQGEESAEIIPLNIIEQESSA


target: T1, human calcitonin receptor; experiment: cell-based or functional assay

| Binder | hCTR funct. EC50 (pM) |
| --- | --- |
| K([γGlu-C20 diacid])CNTATCATQRLADFLRHSSPNFGAIPSSTNVGPRTY-NH2 (disulfide 2-7; N-terminus assumed; SMILES CC[C@H](C)[C@H](NC(=O)[C@H](C)NC(=O)CNC(=O)[C@H](Cc1ccccc1)NC(=O)[C@H](CC(N)=O)NC(=O)[C@@H]1CCCN1C(=O)[C@H](CO)NC(=O)[C@H](CO)NC(=O)[C@H](Cc1c[nH]cn1)NC(=O)[C@H](CCCNC(=N)N)NC(=O)[C@H](CC(C)C)NC(=O)[C@H](Cc1ccccc1)NC(=O)[C@H](CC(=O)O)NC(=O)[C@H](C)NC(=O)[C@H](CC(C)C)NC(=O)[C@H](CCCNC(=N)N)NC(=O)[C@H](CCC(N)=O)NC(=O)[C@@H](NC(=O)[C@H](C)NC(=O)[C@@H]1CSSC[C@H](NC(=O)[C@@H](N)CCCCNC(=O)CC[C@H](NC(=O)CCCCCCCCCCCCCCCCCCC(=O)O)C(=O)O)C(=O)N[C@@H](CC(N)=O)C(=O)N[C@@H]([C@@H](C)O)C(=O)N[C@@H](C)C(=O)N[C@@H]([C@@H](C)O)C(=O)N1)[C@@H](C)O)C(=O)N1CCC[C@H]1C(=O)N[C@@H](CO)C(=O)N[C@@H](CO)C(=O)N[C@H](C(=O)N[C@@H](CC(N)=O)C(=O)N[C@H](C(=O)NCC(=O)N1CCC[C@H]1C(=O)N[C@@H](CCCNC(=N)N)C(=O)N[C@H](C(=O)N[C@@H](Cc1ccc(O)cc1)C(N)=O)[C@@H](C)O)C(C)C)[C@@H](C)O, synthetic peptide amide) | 3640 |
| K([γGlu-C20 diacid])CNTATCATQRLAEFLRHSSPNFGAIPSSTNVGHETY-NH2 (disulfide 2-7; N-terminus assumed; SMILES CC[C@H](C)[C@H](NC(=O)[C@H](C)NC(=O)CNC(=O)[C@H](Cc1ccccc1)NC(=O)[C@H](CC(N)=O)NC(=O)[C@@H]1CCCN1C(=O)[C@H](CO)NC(=O)[C@H](CO)NC(=O)[C@H](Cc1c[nH]cn1)NC(=O)[C@H](CCCNC(=N)N)NC(=O)[C@H](CC(C)C)NC(=O)[C@H](Cc1ccccc1)NC(=O)[C@H](CCC(=O)O)NC(=O)[C@H](C)NC(=O)[C@H](CC(C)C)NC(=O)[C@H](CCCNC(=N)N)NC(=O)[C@H](CCC(N)=O)NC(=O)[C@@H](NC(=O)[C@H](C)NC(=O)[C@@H]1CSSC[C@H](NC(=O)[C@@H](N)CCCCNC(=O)CC[C@H](NC(=O)CCCCCCCCCCCCCCCCCCC(=O)O)C(=O)O)C(=O)N[C@@H](CC(N)=O)C(=O)N[C@@H]([C@@H](C)O)C(=O)N[C@@H](C)C(=O)N[C@@H]([C@@H](C)O)C(=O)N1)[C@@H](C)O)C(=O)N1CCC[C@H]1C(=O)N[C@@H](CO)C(=O)N[C@@H](CO)C(=O)N[C@H](C(=O)N[C@@H](CC(N)=O)C(=O)N[C@H](C(=O)NCC(=O)N[C@@H](Cc1c[nH]cn1)C(=O)N[C@@H](CCC(=O)O)C(=O)N[C@H](C(=O)N[C@@H](Cc1ccc(O)cc1)C(N)=O)[C@@H](C)O)C(C)C)[C@@H](C)O, synthetic peptide amide; also called compound 107) | 2540 |
| K([γGlu-C20 diacid])CNTATCATQRLAEFLRHSSPNFGAIPSSTNVGRETY-NH2 (disulfide 2-7; N-terminus assumed; SMILES CC[C@H](C)[C@H](NC(=O)[C@H](C)NC(=O)CNC(=O)[C@H](Cc1ccccc1)NC(=O)[C@H](CC(N)=O)NC(=O)[C@@H]1CCCN1C(=O)[C@H](CO)NC(=O)[C@H](CO)NC(=O)[C@H](Cc1c[nH]cn1)NC(=O)[C@H](CCCNC(=N)N)NC(=O)[C@H](CC(C)C)NC(=O)[C@H](Cc1ccccc1)NC(=O)[C@H](CCC(=O)O)NC(=O)[C@H](C)NC(=O)[C@H](CC(C)C)NC(=O)[C@H](CCCNC(=N)N)NC(=O)[C@H](CCC(N)=O)NC(=O)[C@@H](NC(=O)[C@H](C)NC(=O)[C@@H]1CSSC[C@H](NC(=O)[C@@H](N)CCCCNC(=O)CC[C@H](NC(=O)CCCCCCCCCCCCCCCCCCC(=O)O)C(=O)O)C(=O)N[C@@H](CC(N)=O)C(=O)N[C@@H]([C@@H](C)O)C(=O)N[C@@H](C)C(=O)N[C@@H]([C@@H](C)O)C(=O)N1)[C@@H](C)O)C(=O)N1CCC[C@H]1C(=O)N[C@@H](CO)C(=O)N[C@@H](CO)C(=O)N[C@H](C(=O)N[C@@H](CC(N)=O)C(=O)N[C@H](C(=O)NCC(=O)N[C@@H](CCCNC(=N)N)C(=O)N[C@@H](CCC(=O)O)C(=O)N[C@H](C(=O)N[C@@H](Cc1ccc(O)cc1)C(N)=O)[C@@H](C)O)C(C)C)[C@@H](C)O, synthetic peptide amide) | 2740 |
| K([γGlu-C20 diacid])CNTATCATQRLAEFLRHSSPNFGAIPSSTNVGSHTY-NH2 (disulfide 2-7; N-terminus assumed; SMILES CC[C@H](C)[C@H](NC(=O)[C@H](C)NC(=O)CNC(=O)[C@H](Cc1ccccc1)NC(=O)[C@H](CC(N)=O)NC(=O)[C@@H]1CCCN1C(=O)[C@H](CO)NC(=O)[C@H](CO)NC(=O)[C@H](Cc1c[nH]cn1)NC(=O)[C@H](CCCNC(=N)N)NC(=O)[C@H](CC(C)C)NC(=O)[C@H](Cc1ccccc1)NC(=O)[C@H](CCC(=O)O)NC(=O)[C@H](C)NC(=O)[C@H](CC(C)C)NC(=O)[C@H](CCCNC(=N)N)NC(=O)[C@H](CCC(N)=O)NC(=O)[C@@H](NC(=O)[C@H](C)NC(=O)[C@@H]1CSSC[C@H](NC(=O)[C@@H](N)CCCCNC(=O)CC[C@H](NC(=O)CCCCCCCCCCCCCCCCCCC(=O)O)C(=O)O)C(=O)N[C@@H](CC(N)=O)C(=O)N[C@@H]([C@@H](C)O)C(=O)N[C@@H](C)C(=O)N[C@@H]([C@@H](C)O)C(=O)N1)[C@@H](C)O)C(=O)N1CCC[C@H]1C(=O)N[C@@H](CO)C(=O)N[C@@H](CO)C(=O)N[C@H](C(=O)N[C@@H](CC(N)=O)C(=O)N[C@H](C(=O)NCC(=O)N[C@@H](CO)C(=O)N[C@@H](Cc1c[nH]cn1)C(=O)N[C@H](C(=O)N[C@@H](Cc1ccc(O)cc1)C(N)=O)[C@@H](C)O)C(C)C)[C@@H](C)O, synthetic peptide amide) | 5580 |

Second part, the binder after the results:

| hCTR funct. EC50 (pM) | Binder |
| --- | --- |
| 6380 | K([γGlu-C20 diacid])CNTATCATQRLAEFLRHSSPNFGAIPSSTNVGPRTY-NH2 (disulfide 2-7; N-terminus assumed; SMILES CC[C@H](C)[C@H](NC(=O)[C@H](C)NC(=O)CNC(=O)[C@H](Cc1ccccc1)NC(=O)[C@H](CC(N)=O)NC(=O)[C@@H]1CCCN1C(=O)[C@H](CO)NC(=O)[C@H](CO)NC(=O)[C@H](Cc1c[nH]cn1)NC(=O)[C@H](CCCNC(=N)N)NC(=O)[C@H](CC(C)C)NC(=O)[C@H](Cc1ccccc1)NC(=O)[C@H](CCC(=O)O)NC(=O)[C@H](C)NC(=O)[C@H](CC(C)C)NC(=O)[C@H](CCCNC(=N)N)NC(=O)[C@H](CCC(N)=O)NC(=O)[C@@H](NC(=O)[C@H](C)NC(=O)[C@@H]1CSSC[C@H](NC(=O)[C@@H](N)CCCCNC(=O)CC[C@H](NC(=O)CCCCCCCCCCCCCCCCCCC(=O)O)C(=O)O)C(=O)N[C@@H](CC(N)=O)C(=O)N[C@@H]([C@@H](C)O)C(=O)N[C@@H](C)C(=O)N[C@@H]([C@@H](C)O)C(=O)N1)[C@@H](C)O)C(=O)N1CCC[C@H]1C(=O)N[C@@H](CO)C(=O)N[C@@H](CO)C(=O)N[C@H](C(=O)N[C@@H](CC(N)=O)C(=O)N[C@H](C(=O)NCC(=O)N1CCC[C@H]1C(=O)N[C@@H](CCCNC(=N)N)C(=O)N[C@H](C(=O)N[C@@H](Cc1ccc(O)cc1)C(N)=O)[C@@H](C)O)C(C)C)[C@@H](C)O, synthetic peptide amide) |
| 1450 | K([γGlu-C20 diacid])CNTATCATQRLAEFLRHSSPNFGAIPSSTNVGPHTY-NH2 (disulfide 2-7, synthetic peptide amide) |
